B1: ABHD5-luciferase(N) (alpha-beta hydrolase domain-containing 5, wild type) [mouse] / PLIN1-luciferase(C) (perilipin 1) [not stated] (parent)
chain 1: MKAMAAEEEVDSADAGGGSGWLTGWLPTWCPTSTSHLKEAEEKMLKCVPCTYKKEPVRISNGNRIWTLMFSHNISSKTPLVLLHGFGGGLGLWALNFEDLSTDRPVYAFDLLGFGRSSRPRFDSDAEEVENQFVESIEEWRCALRLDKMILLGHNLGGFLAAAYSLKYPSRVSHLILVEPWGFPERPDLADQERPIPVWIRALGAALTPFNPLAGLRIAGPFGLSLVQRLRPDFKRKYSSMFEDDTVTEYIYHCNVQTPSGETAFKNMTIPYGWAKRPMLQRIGGLHPDIPVSVIFGARSCIDGNSGTSIQSLRPKSYVKTIAILGAGHYVYADQPEEFNQKVKEICHTVD
chain 2: MSMNKGPTLLDGDLPEQENVLQRVLQLPVVSGTCECFQKTYNSTKEAHPLVASVCNAYEKGVQGASNLAAWSMEPVVRRLSTQFTAANELACRGLDHLEEKIPALQYPPEKIASELKGTISTRLRSARNSISVPIASTSDKVLGATLAGCELALGMAKETAEYAANTRVGRLASGGADLALGSIEKVVEFLLPPDKESAPSSGRQRTQKAPKAKPSLVRRVSTLANTLSRHTMQTTAWALKQGHSLAMWIPGVAPLSSLAQWGASAAMQVVSRRQSEVRVPWLHNLAASQDESHDDQTDTEGEETDDEEEEEESEAEENVLREVTALPNPRGLLGGVVHTVQNTLRNTISAVTWAPAAVLGTVGRILHLTPAQAVSSTKGRAMSLSDALKGVTDNVVDTVVHYVPLPRLSLMEPESEFRDIDNPSAEAERKGSGARPASPESTPRPGQPRGSLRSVRGLSAPSCPGLDDKTEASARPGFLAMPREKPARRVSDSFFRPSVMEPILGRAQYSQLRKKS
B2: ABHD5-luciferase(N) (alpha-beta hydrolase domain-containing 5, wild type) [mouse] / PLIN5-luciferase(C) (perilipin 5) [mouse] (parent)
chain 1: B1 chain 1
chain 2: MDQRGEDTTLAPHSRMSGDQTAQDPGSSLGELDQQNVVNRVVALPLVKATCTAVSSAYNSAKDRHPLLGSACRLAEHCVCSVTTCALDHAQPLLEHLQPQLATVNDLACRGLDKLEEKLPFLQQPSDMVVTSAKDTVAKSVTGMVDLAQRGRRWSGELRRSMSQAMDMVLGKSEKLVDRFLPMTEAELAVLAAEAEGPEVGTVEEQRQQQGYFVRLGSLSARLRHLAYEHSLGKLRQSKHRTQEMLAQLQETLELIQHMQRGASPSPTFHPPKTQELWGSWSPCLENGRSHSEVELETLALSRSLTLELQNAVDALAGCVRGLPPSAQAKVAEVQRSVDALQATFADAHCLGDVAPTALAEGRGSVARAHACVDEFLDLVLRAMPLPWLVGPFAPILVEQSEPLINLATCVDEVVGDPDPRWAHMDWPAQKRAWEAESADPGGQEAEPPRGQGKHTMMPELDF

Variants of: B1
Experiment: luciferase protein complementation analysis, SR4995 dose-response
Details: with PLIN1-luciferase(C) (perilipin 1); SR4995 titrated from 1e-8.5 to 1e-4 M; mean ± SD; read off a plot

chain 1 MKAMAAEEEVDSADAGGGSGWLTGWLPTWCPTSTSHLKEAEEKMLKCVPCTYKKEPVRISNGNRIWTLMFSHNISSKTPLVLLHGFGGGLGLWALNFEDLSTDRPVYAFDLLGFGRSSRPRFDSDAEEVENQFVESIEEWRCALRLDKMILLGHNLGGFLAAAYSLKYPSRVSHLILVEPWGFPERPDLADQERPIPVWIRALGAALTPFNPLAGLRIAGPFGLSLVQRLRPDFKRKYSSMFEDDTVTEYIYHCNVQTPSGETAFKNMTIPYGWAKRPMLQRIGGLHPDIPVSVIFGARSCIDGNSGTSIQSLRPKSYVKTIAILGASHYVYADQPEEFNQKVKEICHTVD [chain 1 G328S] and chain 1 MKAMAAEEEVDSADAGGGSGWLTGWLPTWCPTSTSHLKEAEEKMLKCVPCTYKKEPVRISNGNRIWTLMFSHNISSKTPLVLLHGFGGGLGLWALNFEDLSTDRPVYAFDLLGFGRSSRPRFDSDAEEVENQFVESIEEWRCALRLDKMILLGHNLGGFLAAAYSLKYPSRVSHLILVEPWGFPERPDLADQERPIPVWIRALGAALTPFNPLAGLRIAGPFGLSLVQRLRPDFKRKYSSMFEDDTVTEYIYHCNVQTPSGETAFKNMTIPYGWAKRPMLQRIGGLHPDIPVSVIFGANSCIDGNSGTSIQSLRPKSYVKTIAILGAGHYVYADQPEEFNQKVKEICHTVD [chain 1 R299N] are within 0.2 log units of each other in IC50 (log10 M (log[SR4995])): -6.8 for the first, -6.7 for the second.

Variants of: B2
Experiment: as above
Details: with PLIN5-luciferase(C) (perilipin 5) [mouse]; SR4995 titrated from 1e-8.5 to 1e-4 M; mean ± SD; read off a plot

Going from chain 1 MKAMAAEEEVDSADAGGGSGWLTGWLPTWCPTSTSHLKEAEEKMLKCVPCTYKKEPVRISNGNRIWTLMFSHNISSKTPLVLLHGFGGGLGLWALNFEDLSTDRPVYAFDLLGFGRSSRPRFDSDAEEVENQFVESIEEWRCALRLDKMILLGHNLGGFLAAAYSLKYPSRVSHLILVEPWGFPERPDLADQERPIPVWIRALGAALTPFNPLAGLRIAGPFGLSLVQRLRPDFKRKYSSMFEDDTVTEYIYHCNVQTPSGETAFKNMTIPYGWAKRPMLQRIGGLHPDIPVSVIFGARSCIDGNSGTSIQSLRPKSYVKTIAILGASHYVYADQPEEFNQKVKEICHTVD [chain 1 G328S] to chain 1 MKAMAAEEEVDSADAGGGSGWLTGWLPTWCPTSTSHLKEAEEKMLKCVPCTYKKEPVRISNGNRIWTLMFSHNISSKTPLVLLHGFGGGLGLWALNFEDLSTDRPVYAFDLLGFGRSSRPRFDSDAEEVENQFVESIEEWRCALRLDKMILLGHNLGGFLAAAYSLKYPSRVSHLILVEPWGFPERPDLADQERPIPVWIRALGAALTPFNPLAGLRIAGPFGLSLVQRLRPDFKRKYSSMFEDDTVTEYIYHCNVQTPSGETAFKNMTIPYGWAKRPMLQRIGGLHPDIPVSVIFGANSCIDGNSGTSIQSLRPKSYVKTIAILGAGHYVYADQPEEFNQKVKEICHTVD [chain 1 R299N], the IC50 (log10 M (log[SR4995])) rises from -7.2 to -6.5.
